From paper PMC9972567

Molecular target: Ep300 (UniProt B2RWS6)
Assay: anti-V5 IP, Ep300 immunoblot
Details: reference: wild type; sites S656

binding against the reference: weaker
Substance: PIMT/TGS1 (human PIMT-V5) (from UniProt Q96RS0) S656A
